For one assay, the target named is HER2 antigen (UniProt P04626). Briefly: ELISA. (In an ELISA, binding on a coated surface is turned into a signal by an enzyme label.)
Assay [1] addresses EGFR1 antigen (Homo sapiens (assumed)) (UniProt P00533). The experiment in a line: ELISA.

For orientation: Kd means the equilibrium constant for the complex coming apart. The low end stands for tighter binding, the high end for weaker binding. For the substance ZHER2:4 affibody (designed binder), the Kd in the assay with HER2 antigen worked out at 47.9 nM. This counts as double-digit nanomolar.

The substance anti-EGFR1 nanobody 7D12 (VHH) showed a Kd in assay [1] of 3.5 nM.

Source of the values: paper PMC4329502.
